Source: US20040001835A1, “Prevention or treatment of cancer using integrin alphavbeta3 antagonists in combination with other agents” (MedImmune, Inc., priority 2002, published 2004)
Read-outs that look alike come from different tables or passages of the source.

Columns and labels:
mouse Integrin αVβ3 = biological target: T1, mouse Integrin αVβ3 (Mus musculus, UniProt O54890); assay: Binding to mouse Integrin αVβ3
T1 sequence (O54890 26-787): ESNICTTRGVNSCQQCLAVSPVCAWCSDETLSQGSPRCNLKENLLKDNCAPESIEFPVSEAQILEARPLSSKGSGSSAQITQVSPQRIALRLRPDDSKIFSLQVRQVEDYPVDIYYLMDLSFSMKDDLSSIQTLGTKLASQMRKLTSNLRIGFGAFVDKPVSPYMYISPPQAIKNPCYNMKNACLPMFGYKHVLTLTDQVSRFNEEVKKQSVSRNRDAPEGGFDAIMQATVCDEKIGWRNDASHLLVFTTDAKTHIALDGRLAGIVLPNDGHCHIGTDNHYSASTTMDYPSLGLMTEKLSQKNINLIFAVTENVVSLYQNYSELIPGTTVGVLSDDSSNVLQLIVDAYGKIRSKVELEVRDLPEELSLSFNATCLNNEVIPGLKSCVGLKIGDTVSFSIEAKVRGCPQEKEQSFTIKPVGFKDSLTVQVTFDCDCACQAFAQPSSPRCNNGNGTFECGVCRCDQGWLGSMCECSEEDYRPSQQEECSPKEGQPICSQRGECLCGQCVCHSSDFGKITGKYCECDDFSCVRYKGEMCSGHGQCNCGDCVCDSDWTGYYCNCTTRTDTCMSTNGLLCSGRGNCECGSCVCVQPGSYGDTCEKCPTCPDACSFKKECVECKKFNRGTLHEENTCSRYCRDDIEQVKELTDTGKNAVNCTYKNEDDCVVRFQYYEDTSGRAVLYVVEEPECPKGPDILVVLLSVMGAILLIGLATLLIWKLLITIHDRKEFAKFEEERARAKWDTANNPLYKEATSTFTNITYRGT
T1 sequence (P43406 31-885 partner limits assumed): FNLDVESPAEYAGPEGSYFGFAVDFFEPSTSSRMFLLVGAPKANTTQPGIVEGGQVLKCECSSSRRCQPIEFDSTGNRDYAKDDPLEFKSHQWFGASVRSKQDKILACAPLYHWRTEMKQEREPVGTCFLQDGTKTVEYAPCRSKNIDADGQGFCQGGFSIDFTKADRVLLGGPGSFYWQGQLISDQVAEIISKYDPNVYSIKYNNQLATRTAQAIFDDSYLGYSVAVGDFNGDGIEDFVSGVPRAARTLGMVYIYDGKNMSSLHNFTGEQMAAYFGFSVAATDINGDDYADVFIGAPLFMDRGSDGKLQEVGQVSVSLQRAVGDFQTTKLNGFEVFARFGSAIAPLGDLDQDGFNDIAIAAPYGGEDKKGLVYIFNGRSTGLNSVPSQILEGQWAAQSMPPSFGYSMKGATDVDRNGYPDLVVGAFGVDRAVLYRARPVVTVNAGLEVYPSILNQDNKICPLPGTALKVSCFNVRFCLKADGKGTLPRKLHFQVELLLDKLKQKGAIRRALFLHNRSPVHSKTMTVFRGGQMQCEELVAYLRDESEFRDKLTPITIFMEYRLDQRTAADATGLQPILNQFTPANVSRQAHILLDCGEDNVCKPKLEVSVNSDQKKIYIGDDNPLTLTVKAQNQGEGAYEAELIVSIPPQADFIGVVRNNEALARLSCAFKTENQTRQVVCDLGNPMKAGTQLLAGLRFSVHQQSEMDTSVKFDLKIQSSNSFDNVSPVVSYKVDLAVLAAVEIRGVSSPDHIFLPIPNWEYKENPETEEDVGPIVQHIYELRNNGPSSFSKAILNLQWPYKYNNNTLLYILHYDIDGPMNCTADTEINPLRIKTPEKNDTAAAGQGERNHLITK
T1 sequence (P43406 887-1044 partner limits assumed): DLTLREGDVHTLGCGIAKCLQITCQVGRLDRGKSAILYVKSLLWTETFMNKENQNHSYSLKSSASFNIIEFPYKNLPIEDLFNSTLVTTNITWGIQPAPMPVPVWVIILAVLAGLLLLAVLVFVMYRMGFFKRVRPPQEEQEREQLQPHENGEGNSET

[1] = biological target: T2, human β3 (αvβ3 on HEK293 cells) (Homo sapiens, UniProt P05106); assay: FACS analysis of HEK293 cells transfected with human β3 cDNA; assay type: binding; conditions: wild type human β3, flow cytometry, FIG. 4
T2 construct: expressed in transfected cells; host or cells: HEK293
Text: FIG. 4. Binding of Integrin αvβ3 specific antibodies to human β3 containing rat residues.
Sequence comparison of residues 164 to 202 of β3 integrins from different species and design of mutations. To further characterize the binding epitope of Vitaxin®, the gene encoding β3 was cloned and sequenced from hamster cDNA. The amino acids in the region previously proposed to contain the LM609 binding epitope are shown above (dashed lines depict conserved residues). To determine which residues in the human sequence were essential for antibody binding, the amino acids shown in color were mutated to the corresponding rat residues. The resulting genes were transfected to HEK293 cells which express endogenous human αv. Resulting cell lines were analyzed by flow cytometry for antibody binding.
This protocol is used to assess the surface expression of integrins in HEK-293 cells transfected with various Integrin subunits. Primary antibodies bound to the integrins are detected by fluorochrome-conjugated secondary antibodies and analyzed by flow cytometry.
1. Wash adherent cells twice with 5 ml of PBS.
2. Add 1.5 ml of trypsin solution or cell dissociation solution, incubate at 37_C. foir 2 min.
3. Add 3 ml of culture medium or FACs buffer to the plate and loosen cells from the plate by pipetting. Count cells. Resuspend cells in FACs buffer at 5×10^6 per ml.
4. […]

Rabbit αvβ3 = assay: 125-labeled Vitaxin binding affinities and number of binding sites on cell lines; conditions: for Kd: read-out: Kp
Text: (§1) ^125-labeled Vitaxin® was used to determine binding affinities and number of binding sites for human, rabbit and hamster cell lines. The affinity of Vitaxin® for hamster αvβ3 was approximately 2-3 fold lower than human αvβ3 while its affinity for rabbit αvβ3 was about 4-10 fold lower than human αvβ3.

human αvβ3 = biological target: T3, human αvβ3 (Homo sapiens, UniProt P05106); assay: as above; conditions: for Kd: read-out: Kp
T3 construct: endogenous in cells; host or cells: M21 melanoma, HMVEC, HUVEC
Text: as §1

[2] = Human HUVEC primary endothelium

T3 sequence (P05106 27-788): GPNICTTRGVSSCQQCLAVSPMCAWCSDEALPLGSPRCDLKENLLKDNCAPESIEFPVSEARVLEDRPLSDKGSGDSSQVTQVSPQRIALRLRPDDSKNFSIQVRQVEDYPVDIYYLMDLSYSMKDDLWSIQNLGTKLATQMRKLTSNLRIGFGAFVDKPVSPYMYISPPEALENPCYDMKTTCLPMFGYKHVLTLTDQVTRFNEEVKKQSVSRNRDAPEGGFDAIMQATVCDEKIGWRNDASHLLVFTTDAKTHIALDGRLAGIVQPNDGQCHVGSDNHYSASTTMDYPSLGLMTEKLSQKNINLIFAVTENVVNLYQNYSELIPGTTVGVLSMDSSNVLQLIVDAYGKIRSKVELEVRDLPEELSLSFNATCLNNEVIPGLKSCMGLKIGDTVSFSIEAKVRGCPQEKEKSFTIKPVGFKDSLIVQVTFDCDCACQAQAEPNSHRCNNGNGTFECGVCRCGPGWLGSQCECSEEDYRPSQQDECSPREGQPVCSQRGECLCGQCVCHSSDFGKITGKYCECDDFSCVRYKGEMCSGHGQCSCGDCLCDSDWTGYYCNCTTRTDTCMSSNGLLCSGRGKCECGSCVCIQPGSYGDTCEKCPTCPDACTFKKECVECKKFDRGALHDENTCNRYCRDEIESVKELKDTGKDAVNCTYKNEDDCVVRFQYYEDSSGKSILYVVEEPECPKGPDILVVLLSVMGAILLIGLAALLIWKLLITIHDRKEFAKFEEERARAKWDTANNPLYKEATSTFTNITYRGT
T3 sequence (P06756 31-889 partner limits assumed): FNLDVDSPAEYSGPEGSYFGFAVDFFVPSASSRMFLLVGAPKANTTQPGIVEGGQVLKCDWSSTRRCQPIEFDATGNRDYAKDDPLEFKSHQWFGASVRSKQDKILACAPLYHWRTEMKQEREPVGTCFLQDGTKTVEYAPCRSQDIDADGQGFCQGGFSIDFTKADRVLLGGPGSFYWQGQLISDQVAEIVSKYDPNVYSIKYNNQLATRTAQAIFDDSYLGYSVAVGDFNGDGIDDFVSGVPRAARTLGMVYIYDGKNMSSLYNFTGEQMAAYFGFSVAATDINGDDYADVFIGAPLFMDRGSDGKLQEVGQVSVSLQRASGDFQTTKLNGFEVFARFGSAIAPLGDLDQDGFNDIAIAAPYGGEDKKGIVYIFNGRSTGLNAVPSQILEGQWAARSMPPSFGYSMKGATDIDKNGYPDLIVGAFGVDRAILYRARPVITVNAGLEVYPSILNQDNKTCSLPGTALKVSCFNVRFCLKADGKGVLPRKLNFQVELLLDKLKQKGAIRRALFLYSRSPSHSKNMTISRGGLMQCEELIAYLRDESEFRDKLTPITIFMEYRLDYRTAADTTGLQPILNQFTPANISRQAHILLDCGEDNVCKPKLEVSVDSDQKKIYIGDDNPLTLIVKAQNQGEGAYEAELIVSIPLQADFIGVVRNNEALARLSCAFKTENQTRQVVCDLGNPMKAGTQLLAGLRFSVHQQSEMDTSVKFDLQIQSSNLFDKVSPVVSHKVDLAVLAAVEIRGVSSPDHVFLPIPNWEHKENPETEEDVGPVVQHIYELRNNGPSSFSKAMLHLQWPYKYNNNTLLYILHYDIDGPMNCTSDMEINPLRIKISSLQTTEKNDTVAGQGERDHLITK
T3 sequence (P06756 891-1048 partner limits assumed): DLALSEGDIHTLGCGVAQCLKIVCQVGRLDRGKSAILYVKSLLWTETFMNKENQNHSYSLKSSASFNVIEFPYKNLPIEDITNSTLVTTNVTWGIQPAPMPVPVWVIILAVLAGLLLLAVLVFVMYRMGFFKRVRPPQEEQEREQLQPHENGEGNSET
T2 sequence (P05106 27-788): as the sequence (P05106 27-788) above
T2 sequence (P06756 31-889 partner limits assumed): as the sequence (P06756 31-889 partner limits assumed) above
T2 sequence (P06756 891-1048 partner limits assumed): as the sequence (P06756 891-1048 partner limits assumed) above

B1: Vitaxin®: humanized blocking monoclonal antibody that binds Integrin αVβ3 (MEDI-522, MedImmune); humanized and optimized version of LM609 (antibody, chains of the INN, looked up, V domains shown)
VH: QVQLVESGGGVVQPGRSLRLSCAASGFTFSSYDMSWVRQAPGKGLEWVAKVSSGGGSTYYLDTVQGRFTISRDNSKNTLYLQMNSLRAEDTAVYYCARHLHGSFASWGQGTTVTVSS
VL: EIVLTQSPATLSLSPGERATLSCQASQSISNFLHWYQQRPGQAPRLLIRYRSQSISGIPARFSGSGSGTDFTLTISSLEPEDFAVYYCQQSGSWPLTFGGGTKVEIK
Mouse Integrin αVβ3
  binding to mouse Integrin αVβ3: do not bind
[1]
  binding to HEK293 cells transfected with human β3 cDNA: detectable
Rabbit αvβ3; Rabbit RK1 kidney epithelium
  Kd: 23 nM
Rabbit αvβ3; Rabbit VX7 carcinoma
  Kd: 8.9 nM
Rabbit αvβ3; rabbit vs human cell lines
  affinity for rabbit αvβ3, fold lower than human αvβ3: 4-10 fold
Human αvβ3; [2]
  Binding Sites: 8.1 × 10^4
  Kd: 3.3 nM
Human αvβ3; Human M21 melanoma
  Binding Sites: 1.3 × 10^5
  Kd: 2.2 nM
